Laboratory results taken from PMC5724930 (Biochemistry, 2017).

B1: PanD(K119A) (enzyme, E. coli, UniProt P0A790 1-126, looked up)
chain: MIRTMLQGKLHRVKVTHADLHYEGSCAIDQDFLDAAGILENEAIDIWNVTNGKRFSTYAIAAERGSRIISVNGAAAHCASVGDIVIIASFVTMPDEEARTWRPNVAYFEGDNEMKRTAAAIPVQVA
B2: aspartate α-decarboxylase (PanD), wild type (from pET28apanD, for SEC) (enzyme, E. coli, UniProt P0A790 1-126, looked up)
chain: MIRTMLQGKLHRVKVTHADLHYEGSCAIDQDFLDAAGILENEAIDIWNVTNGKRFSTYAIAAERGSRIISVNGAAAHCASVGDIVIIASFVTMPDEEARTWRPNVAYFEGDNEMKRTAKAIPVQVA

Target: the molecule itself
Assay: SEC; mixtures of the purified proteins; details in the Supporting Information

Row | Protein | stoichiometry N
1 | B1 | 4
2 | B2 | 4
